Assay results: US8524668 (CLEVELAND CLINIC FOUNDATION, dated 2013)
Ends that are not written are not given here. Pam2 = S-(2,3-dihydroxypropyl)-cysteine acylated by two palmitic acids (lipo-cysteine)

B1: CBLB601 (R-PAM2C-SKKKK) (peptide)
peptide: CSKKKK
modifications: N-terminal Cys is the R-Pam2 lipoamino acid (S-(2,3-dihydroxypropyl)-cysteine acylated by two palmitic acids, R stereoisomer)

molecular target: TLR2/TLR6 heterodimer; test: cell-based or functional assay

In order of falling NF-κB activation:
1. QGEESNDK (not fully specified (N-terminus)) [CBLB614]  200
2. VQGEESNDK (not fully specified (N-terminus)) [CBLB612]  200
3. GEESN (not fully specified (N-terminus)) [CBLB615]  200
4. B1  100
5. {R‑Pam2}-GDPKHPKSF [CBLB606]  100
6. Pam2-SQMHH [CBLB605]  2
7. Pam2-GDPKHPKSFTGWVA [CBLB607]  2
8. Pam2-FEPPPATTTKSK [CBLB608]  2
9. Pam2-GQHHM [CBLB603]  0
10. Pam2-GSHHM [CBLB604]  0
11. Pam2-GQHHH [CBLB602]  0
12. GETDKEGKIIRIFDNSF (not fully specified (N-terminus)) [CBLB611]  0
